Source: patent publication US20090035321A1, “Intercellular adhesion molecules and their binding ligands” (Boehringer Ingelheim Pharmaceuticals, Inc., published 2009)

Experiments:
Assay in all cases: 35S-HRV14 on COS cells
ICAM-1 N156/E = ICAM-1 N156/E (human, UniProt P05362)
Method: (§1) COS cells were seeded into 10 cm tissue culture plates such that they would be 50% confluent by 16-24 hrs. COS cells were then washed once with TBS and incubated for 4 hrs with 4 ml RPMI containing 10% Nu sera (Collaborative) 5 pg/ml chloroquine, 3 μg of mutant plasmid and 200 μg/ml DEAE-dextran sulfate. Cells were then washed with 10% DMSO/PBS followed by PBS and cultured 16 hrs in culture media. Culture media was replaced with fresh media and at 48 hrs post transfection (OS cells were suspended by trypsin/EDTA (Gibco) treatment and divided into 2, 10 cm plates as well as 24 well tissue culture plates for HRV binding. At 72 hrs cells were harvested from 10 cm plates with 5 mM EDTA/HBSS and processed for adhesion to LFA-1 coated plastic and immunofluorescence.
(§2) Binding occurred in 1 hr at 35° C. in a 5% CO₂ atmosphere with horizontal rotation (100 rpm). Unbound [³⁵S] HRV14 was aspirated, COS cells were gently washed with 150 ml of HRV buffer and then solubilized with 1% SDS in PBS for scintillation counting.
(§3) In Table 25, the notation for the mutations uses the one-letter code for the wild-type sequence followed by a slash and the one-letter code for the corresponding mutant sequence. The position of the first amino acid within the sequence is indicated. Wild type residues precede the slash followed by the residues they were substituted for in the mutant. COS cells expressing ICAM-1 mutants were tested for adherence to LFA-1 coated plastic and for binding 35S met-labeled HRV14. […] Binding is presented as mean and standard error (SE) for multiple experiments (n). […] The specific linear fluorescence intensity (SLFI) of CL203 for each mutant is normalized to that of wild type CL203 SLFI (% WT) as discussed above. The SLFI of RR1/1, R6.5 and LB-2 SLFI is normalized to the CL203 SLFI of the mutant (% CL203) as described above.

ICAM-1 T75/A = ICAM-1 T75/A (human, UniProt P05362)
Method: as §1, §2, §3

ICAM-1 A189T/SI = ICAM-1 A189T/SI (human, UniProt P05362)
Method: as §1, §2, §3

ICAM-1 K40/A = ICAM-1 K40/A (human, UniProt P05362)
Method: as §1, §2, §3

ICAM-1 G15/SA = ICAM-1 G15/SA (human, UniProt P05362)
Method: as §1, §2, §3

ICAM-1 R88V/EA = ICAM-1 R88V/EA (human, UniProt P05362)
Method: as §1, §2, §3

ICAM-1 D71/E = ICAM-1 D71/E (human, UniProt P05362)
Method: as §1, §2, §3

ICAM-1 E111GGA/KAGS = ICAM-1 E111GGA/KAGS (human, UniProt P05362)
Method: as §1, §2, §3

ICAM-1 D71/N = ICAM-1 D71/N (human, UniProt P05362)
Method: as §1, §2, §3

ICAM-1 S3/T = ICAM-1 S3/T (human, UniProt P05362)
Method: as §1, §2, §3

ICAM-1 S24/A = ICAM-1 S24/A (human, UniProt P05362)
Method: as §1, §2, §3

ICAM-1 L91/A = ICAM-1 L91/A (human, UniProt P05362)
Method: as §1, §2, §3

ICAM-1 V4/G = ICAM-1 V4/G (human, UniProt P05362)
Method: as §1, §2, §3

ICAM-1 V136GE/GVK = ICAM-1 V136GE/GVK (human, UniProt P05362)
Method: as §1, §2, §3

ICAM-1 R13/Q = ICAM-1 R13/Q (human, UniProt P05362)
Method: as §1, §2, §3

ICAM-1 D213GL/HGV = ICAM-1 D213GL/HGV (human, UniProt P05362)
Method: as §1, §2, §3

ICAM-1 E59/Q = ICAM-1 E59/Q (human, UniProt P05362)
Method: as §1, §2, §3

ICAM-1 Q1T/KA = ICAM-1 Q1T/KA (human, UniProt P05362)
Method: as §1, §2, §3

ICAM-1 K128/R = ICAM-1 K128/R (human, UniProt P05362)
Method: as §1, §2, §3

ICAM-1 N103/K = ICAM-1 N103/K (human, UniProt P05362)
Method: as §1, §2, §3

ICAM-1 G46NN/ASI = ICAM-1 G46NN/ASI (human, UniProt P05362)
Method: as §1, §2, §3

ICAM-1 N48/H = ICAM-1 N48/H (human, UniProt P05362)
Method: as §1, §2, §3

ICAM-1 S61/I = ICAM-1 S61/I (human, UniProt P05362)
Method: as §1, §2, §3

ICAM-1 R13/E = ICAM-1 R13/E (human, UniProt P05362)
Method: as §1, §2, §3

ICAM-1 A178/G = ICAM-1 A178/G (human, UniProt P05362)
Method: as §1, §2, §3

ICAM-1 S74/A = ICAM-1 S74/A (human, UniProt P05362)
Method: as §1, §2, §3

ICAM-1 E87/K = ICAM-1 E87/K (human, UniProt P05362)
Method: as §1, §2, §3

ICAM-1 R13/K = ICAM-1 R13/K (human, UniProt P05362)
Method: as §1, §2, §3

ICAM-1 Q58EDS/AKDI = ICAM-1 Q58EDS/AKDI (human, UniProt P05362)
Method: as §1, §2, §3

B1: human rhinovirus 14 (HRV14) (other)
chain: GAQVSTQKSGSHENQNILTNGSNQTFTVINYYKDAASTSSAGQSLSMDPSKFTEPVKDLMLKGAPALNSPNVEACGYSDRVQQITLGNSTITTQEAANAVVCYAEWPEYLPDVDASDVNKTSKPDTSVCRFYTLDSKTWTTGSKGWCWKLPDALKDMGVFGQNMFFHSLGRSGYTVHVQCNATKFHSGCLLVVVIPEHQLASHEGGNVSVKYTFTHPGERGIDLSSANEVGGPVKDVIYNMNGTLLGNLLIFPHQFINLRTNNTATIVIPYINSVPIDSMTRHNNVSLMVIPIAPLTVPTGATPSLPITVTIAPMCTEFSGIRSKSIVPQGLPTTTLPGSGQFLTTDDRQSPSALPNYEPTPRIHIPGKVHNLLEIIQVDTLIPMNNTHTKDEVNSYLIPLNANRQNEQVFGTNLFIGDGVFKTTLLGEIVQYYTHWSGSLRFSLMYTGPALSSAKLILAYTPPGARGPQDRREAMLGTHVVWDIGLQSTIVMTIPWTSGVQFRYTDPDTYTSAGFLSCWYQTSLILPPETTGQVYLLSFISACPDFKLRLMKDTQTISQTVALTEGLGDELEEVIVEKTKQTVASISSGPKHTQKVPILTANETGATMPVLPSDSIETRTTYMHFNGSETDVECFLGRAACVHVTEIQNKDATGIDNHREAKLFNDWKINLSSLVQLRKKLELFTYVRFDSEYTILATASQPDSANYSSNLVVQAMYVPPGAPNPKEWDDYTWQSASNPSVFFKVGDTSRFSVPYVGLASAYNCFYDGYSHDDAETQYGITVLNHMGSMAFRIVNEHDEHKTLVKIRVYHRAKHVEAWIPRAPRALPYTSIGRTNYPKNTEPVIKKRKGDIKSY
modifications: [35S]-Met labeled
For B1, the “HRV Binding %” value (ICAM-1 N156/E) was 107 % of wild type, the “HRV Binding %” value (ICAM-1 T75/A) was 119 % of wild type and the “HRV Binding %” value (ICAM-1 A189T/SI) was 168 % of wild type. For the same binder, the “HRV Binding %” value (ICAM-1 K40/A) was 89 % of wild type, the “HRV Binding %” value (ICAM-1 G15/SA) was 164 % of wild type and the “HRV Binding %” value (ICAM-1 R88V/EA) was 152 % of wild type. The “HRV Binding %” value (ICAM-1 D71/E) was 140 % of wild type, the “HRV Binding %” value (ICAM-1 E111GGA/KAGS) was 162 % of wild type and the “HRV Binding %” value (ICAM-1 D71/N) was 62 % of wild type. The “HRV Binding %” value (ICAM-1 S3/T) was 196 % of wild type, the “HRV Binding %” value (ICAM-1 S24/A) was 99 % of wild type and the “HRV Binding %” value (ICAM-1 L91/A) was 105 % of wild type. The “HRV Binding %” value (ICAM-1 V4/G) was 30 % of wild type, the “HRV Binding %” value (ICAM-1 V136GE/GVK) was 117 % of wild type and the “HRV Binding %” value (ICAM-1 R13/Q) was 60 % of wild type. For the same binder, the “HRV Binding %” value (ICAM-1 D213GL/HGV) was 99 % of wild type, the “HRV Binding %” value (ICAM-1 E59/Q) was 92 % of wild type and the “HRV Binding %” value (ICAM-1 Q1T/KA) was 11 % of wild type. The “HRV Binding %” value (ICAM-1 K128/R) was 137 % of wild type, the “HRV Binding %” value (ICAM-1 N103/K) was 13 % of wild type and the “HRV Binding %” value (ICAM-1 G46NN/ASI) was 9 % of wild type. The “HRV Binding %” value (ICAM-1 N48/H) was 81 % of wild type, the “HRV Binding %” value (ICAM-1 S61/I) was 111 % of wild type and the “HRV Binding %” value (ICAM-1 R13/E) was 10 % of wild type. For the same binder, the “HRV Binding %” value (ICAM-1 A178/G) was 102 % of wild type, the “HRV Binding %” value (ICAM-1 S74/A) was 156 % of wild type and the “HRV Binding %” value (ICAM-1 E87/K) was 27 % of wild type. For the same binder, the “HRV Binding %” value (ICAM-1 R13/K) was 123 % of wild type and the “HRV Binding %” value (ICAM-1 Q58EDS/AKDI) was 0 % of wild type.
